Measured values from US20110177056A1.

Molecular target: EGF receptor (ErbB1) on A431 cells (UniProt P00533)
Assay: cell-based or functional assay

B1: EGF variant v3 (EGFv3) (ligand)
chain: NSDPKCPLSHEGYCLNDGVCMYIGTLDRYACNCVVGYVGERCQYRDLKLAELR
pEC50 (phosphoY1068 EGF receptor, MSD electrochemiluminescence, A431 cells): 7.61 pEC50
